From patent US20250188188A1

Tests used:
[1] = target: active human C1s purified from human serum (CompTech, Tyler, TX, catalog number A104) (human) (UniProt P09871); assay: cell-based or functional assay
[2] = target: active human C1s purified from human serum (CompTech, Tyler, TX, catalog number A104) (human) (UniProt P09871); assay: SPR, antibody captured via anti-human Fc, C1s in solution

Sequence of active human C1s purified from human serum (CompTech, Tyler, TX, catalog number A104) (human) (P09871 16-437, chain 1 of 2): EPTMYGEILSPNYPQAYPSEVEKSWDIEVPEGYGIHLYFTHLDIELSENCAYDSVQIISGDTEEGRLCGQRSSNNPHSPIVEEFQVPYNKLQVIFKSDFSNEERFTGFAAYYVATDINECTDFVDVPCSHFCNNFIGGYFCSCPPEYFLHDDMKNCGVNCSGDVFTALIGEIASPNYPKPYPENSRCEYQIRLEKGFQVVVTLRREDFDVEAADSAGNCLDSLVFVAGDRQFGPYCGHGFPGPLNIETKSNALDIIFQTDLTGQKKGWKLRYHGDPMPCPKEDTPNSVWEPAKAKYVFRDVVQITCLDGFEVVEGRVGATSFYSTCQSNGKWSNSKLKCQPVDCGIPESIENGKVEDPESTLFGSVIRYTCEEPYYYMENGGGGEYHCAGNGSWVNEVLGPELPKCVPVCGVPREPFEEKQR
Sequence of active human C1s purified from human serum (CompTech, Tyler, TX, catalog number A104) (human) (P09871 438-688, chain 2 of 2): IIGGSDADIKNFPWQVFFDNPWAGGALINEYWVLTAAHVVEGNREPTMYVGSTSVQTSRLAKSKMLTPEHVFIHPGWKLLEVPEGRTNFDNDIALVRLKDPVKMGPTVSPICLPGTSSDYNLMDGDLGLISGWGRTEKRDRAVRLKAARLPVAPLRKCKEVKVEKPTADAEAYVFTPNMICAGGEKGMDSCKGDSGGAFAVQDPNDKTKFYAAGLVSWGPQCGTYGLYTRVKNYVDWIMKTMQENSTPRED

Kd [2]: 3.77 nM | koff [2]: 0.00134 s⁻¹ | kon [2]: 357000 M⁻¹ s⁻¹
B1: recombinant TNT020 (antibody, from another filing, V domains shown)
VH: QVQLVQSGAEVKKPGASVKLSCTASGFNIKDDYIHWVKQAPGQGLEWIGRIDPADGHTKYAPKFQVKVTITADTSTSTAYLELSSLRSEDTAVYYCARYGYGREVFDYWGQGTTVTVSS
VL: DIVLTQSPDSLAVSLGERATISCKASQSVDYDGDSYMNWYQQKPGQPPKILIYDASNLESGIPARFSGSGSGTDFTLTISSLEPEDFAIYYCQQSNEDPWTFGGGTKVEIKR
IC50, inhibition of C3b deposition on sensitized hRBCs in 7.5% human serum (flow cytometry), Donor A [1]: 52.9 nM | IC50, inhibition of C3b deposition on sensitized hRBCs in 7.5% human serum (flow cytometry), Donor B (1) [1]: 238 nM | IC50, inhibition of C3b deposition on sensitized hRBCs in 7.5% human serum (flow cytometry), Donor B (2) [1]: 688 nM | IC50, inhibition of sensitized hRBC lysis in 25% human serum, Donor 1 [1]: 20.9 nM | IC50, inhibition of sensitized hRBC lysis in 25% human serum, Donor 2 [1]: 30.7 nM | IC50, inhibition of sensitized hRBC lysis in 25% human serum, Donor 3 [1]: 14.6 nM
